Test results published in paper PMC3246092 (Gene, 2011).

T1: Rrn7p subunit of recombinant core factor, N-terminal 6-his (S. cerevisiae, UniProt P40992 1-514)
T1 sequence (looked up): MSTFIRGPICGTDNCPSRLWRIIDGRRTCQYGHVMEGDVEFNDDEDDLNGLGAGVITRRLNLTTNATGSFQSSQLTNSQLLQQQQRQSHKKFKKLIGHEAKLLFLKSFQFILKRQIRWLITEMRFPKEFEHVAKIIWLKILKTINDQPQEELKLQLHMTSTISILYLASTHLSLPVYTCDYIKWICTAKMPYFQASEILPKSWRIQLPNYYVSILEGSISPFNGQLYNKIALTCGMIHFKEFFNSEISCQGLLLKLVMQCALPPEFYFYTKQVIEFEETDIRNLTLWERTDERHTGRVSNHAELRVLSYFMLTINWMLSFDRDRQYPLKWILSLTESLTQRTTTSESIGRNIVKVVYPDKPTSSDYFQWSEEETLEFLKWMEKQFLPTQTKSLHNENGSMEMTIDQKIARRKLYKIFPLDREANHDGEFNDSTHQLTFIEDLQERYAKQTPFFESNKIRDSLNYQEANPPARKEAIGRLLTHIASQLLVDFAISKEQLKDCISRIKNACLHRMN

B1: Rrn6p subunit of recombinant core factor (natural protein, S. cerevisiae, UniProt P32786 1-894, looked up)
chain: MSEGQIPSSDVLGSQLGVGVQGASLYCPQENYTTKKQEKPQWLRPVDDTLAEDALDLHIVVKSLLCDTAIRYISDDKVLQESDADDDLITSDIDEDTDNQGDTSIVVNPVIPVVPKDVHFFKKVDVGNDSMFGVNCDTPVSFQDYIPSDLLRNLDDTLQESTNSSRPMQDAFFWDPTVANRLDSQYIQTASDLRNYRDGTEIIAYASGKTGSVLNIAVLTRQNTLHLNRHNNVTSIELHSPIKSIKIPGASESIGRRSNLVGIITENSFQIFRIESVHSRSCDVMVSSSEPLYFVEIDDLQVVDFAFNPWDLQQFAIIDIKGNWSIGRIPKNFNNNNKRKLQLIDNLHGTIFDPEELSSWKRIEWFSHFQKILVFDRSKMIEIDFMNNWQTEVVQAKAWSNIRDYKRIDDKNGILLTSREIIIVGASESNDPVRRISWKHDLDPDDTTLRITVQKVKKPDHILLVAFVYSMRHKRIYMHVFSHRKANLFQSLGCSTVLEIPGGTPTGIETILTLDHIDDESRREEDADENFELVVDFLVKLRNSSEVYYYALSNTQNSEPNKQETPIIVDHPEWASLFNNADEREKESIGALVSQIKLKERERISRVQNLIEHENSHDEDKYLQDLGYRLSIATNELLESWQKTKDESILSGSLSHSKLKNLLENSDSFASIPEFSSLLDQFFQYYQDQDVTFIGFEKLLHLFLHEDVPGLDIFYNKLLQCWVLVSPQAELLTKEIVKDIIWSLARLEKPSLFEPIQNEISRSLSGPYQDIISSWDMDDINEEDESNEFNFDSQFSAPFNGRPPFNLNSQSQIPTIKSSQSSGLARRKRILKTQSQKATPLSQSTQNLSVLPDSMTPAFTLMQPPSSQISFVNDSQPRNSQKAKKKKKRIRGFG
B2: Rrn11p subunit of recombinant core factor, N-terminal 6-his (natural protein, S. cerevisiae, UniProt Q04712 1-507, looked up)
chain: MFEVPITLTNRKFAQRRKLKYQYINYISRRFDRISKKSTTTDSLPTPENSAAENNDEEEGQNSEAGTYRRSVLQQKKRRRERHWRSVVGEIYSTTESETDSQEEETEEGGEHDTGIDKEDSDEERKFWKKYEKPEKSFEIWRTVSSQNKQPINKQKMTYHNFKKIEKIPLRKMEIPLLHCTKENKLYFQSISRGLEPLKTSTSEVRNYRTRHIVTLTDLLHLNVSRHNWSLAYKIFATLIRIPGVQIKSLWGIGVEILDNLSNSSSGLDFLQWMCQIYSSKSRFVQNINYRSIVPPFQTGSRTHTAKFAITYLWSSLINCQKSMEPSSNIIDKPFDTENDLLQELIDKISEWVLTPPFMEDAEVWFIYASCHLLKADTLSRQFVNDNKNNDLIGLDRDIKINQVIKHIHYVRTFLKICLDKGGFAVPSRLIENQLKSFESRLYGEAQDIQERDVANVYDSIDNSSVENSFGDVYETNAEFLDTQLMDLSPEDNGLDEMHYSDEDSSE

Assays:
[1] = target: B2; test: quantification of Sypro Ruby stained SDS-PAGE bands of the purified complex
[2] = target: T1, Rrn7p subunit of recombinant core …; test: as above

stoichiometry N [1]	stoichiometry N [2]	Binder
1	1	B1
	1	B2
